As a reminder, the stoichiometry N is the number of molecules, sites or subunits per partner or assembly.

This is an account of results in paper PMC5416850 (Nucleic Acids Research, 2017).

Series [1] concerns the target T1, Vibrio cholerae HigB2 toxin (Vibrio cholerae, UniProt Q9KMA6).
T1 sequence: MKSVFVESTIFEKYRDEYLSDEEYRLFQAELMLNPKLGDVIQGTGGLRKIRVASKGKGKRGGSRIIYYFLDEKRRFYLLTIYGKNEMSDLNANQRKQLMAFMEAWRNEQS
Put plainly: ITC. (ITC needs no label: the signal is the heat of the interaction.)

The series “SAXS” deals with the molecule itself. Put plainly: SAXS.
For series [2], the target named is Vibrio cholerae HigB2 toxin (Vibrio cholerae, UniProt Q9KMA6). Put plainly: crystal structure.
The series “crystal structure” concerns the molecule itself. Put plainly: crystal structure.

B1: VcHigA2_(3-22) peptide (peptide)
peptide: NRDLFAELSSALVEAKQHSEW
As to B1, the binding result in series [1] is “binds”.

B2: Vibrio cholerae HigA2 antitoxin, full length (natural protein)
chain: MSNRDLFAELSSALVEAKQHSEGKLTLKTHHVNDVGELNISPDEIVSIREQFNMSRGVFARLLHTSSRTLENWEQGRSVPNGQAVTLLKLVQRHPETLSHIAEL
In series [1], B2 showed a dH of -26.6 ± 0.9 kcal/mol. Besides, in “SAXS”, the “stoichiometry N” value stood at 2.

B3: nanobody Nb6 (VHH)
VHH: QVQLQESGGGLVQPGGSLRLSCAASGFTFSNYAMRWYRQAPGEEREFVAFISSVGGSTNYADSVKGRFTISRDNGKNTLYLQMNSLKPEDTAVYFCVARLSLISDSWGQGTQVTVSS
Consider B3, for which the binding result in series [2] is “binds”.

B4: nanobody Nb2 (VHH)
VHH: QVQLQESGGGLVQPGGSLRLSCAASGFTLDYYAIGWFRQAPGKEREGVSCISSSGGTTNYADSVKGRFTVSRDNAKNTVYLQMNSLKPEDTAVYYCVADFACPLIREYDYWGQGTQVTVSS
B4: the binding result in series [2] is “binds”.

B5: C-terminal domain of VcHigA2 (residues 38-104) (domain or fragment)
chain: LNISPDEIVSIREQFNMSRGVFARLLHTSSRTLENWEQGRSVPNGQAVTLLKLVQRHPETLSHIAEL
As for B5, the binding result in “crystal structure” is “binds”.
